Laboratory results from patent US20050054041.

B1: KinI-3 construct V195L546 (protein)
chain: VSGYNYGIPHSCIRQNTSEKQNPWTEMEKIRVCVRKRPLGMREVRRGEINIITVEDKETLLVHEKKEAVDLTQYILQHVFYFDEVFGEACTNQDVYMKTTHPLIQHIFNGGNATCFAYGQTGAGKTYTMIGTHENPGLYALAAKDIFRQLEVSQPRKHLFVWISFYEIYCGQLYDLLNRRKRLFAREDSKHMVQIVGLQELQVDSVELLLEVILKGSKERSTGATGVNADSSRSHAVIQIQIKDSAKRTFGRISFIDLAGSERAADARDSDRQTKMEGAEINQSLLALKECIRALDQEHTHTPFRQSKLTQVLKDSFIGNAKTCMIANISPSHVATEHTLNTLRYADRVKEL
B2: KinI-3 construct D183L546 (protein)
chain: MDCDIPIIQRISHVSGYNYGIPHSCIRQNTSEKQNPWTEMEKIRVCVRKRPLGMREVRRGEINIITVEDKETLLVHEKKEAVDLTQYILQHVFYFDEVFGEACTNQDVYMKTTHPLIQHIFNGGNATCFAYGQTGAGKTYTMIGTHENPGLYALAAKDIFRQLEVSQPRKHLFVWISFYEIYCGQLYDLLNRRKRLFAREDSKHMVQIVGLQELQVDSVELLLEVILKGSKERSTGATGVNADSSRSHAVIQIQIKDSAKRTFGRISFIDLAGSERAADARDSDRQTKMEGAEINQSLLALKECIRALDQEHTHTPFRQSKLTQVLKDSFIGNAKTCMIANISPSHVATEHTLNTLRYADRVKELLEHHHHHH
B3: KinI-3 construct E166L546 (protein)
chain: EISTSLFSPNYLSAILGDCDIPIIQRISHVSGYNYGIPHSCIRQNTSEKQNPWTEMEKIRVCVRKRPLGMREVRRGEINIITVEDKETLLVHEKKEAVDLTQYILQHVFYFDEVFGEACTNQDVYMKTTHPLIQHIFNGGNATCFAYGQTGAGKTYTMIGTHENPGLYALAAKDIFRQLEVSQPRKHLFVWISFYEIYCGQLYDLLNRRKRLFAREDSKHMVQIVGLQELQVDSVELLLEVILKGSKERSTGATGVNADSSRSHAVIQIQIKDSAKRTFGRISFIDLAGSERAADARDSDRQTKMEGAEINQSLLALKECIRALDQEHTHTPFRQSKLTQVLKDSFIGNAKTCMIANISPSHVATEHTLNTLRYADRVKEL
B4: KinI-3 construct E233F541 (protein)
chain: LGMREVRRGEINIITVEDKETLLVHEKKEAVDLTQYILQHVFYFDEVFGEACTNQDVYMKTTHPLIQHIFNGGNATCFAYGQTGAGKTYTMIGTHENPGLYALAAKDIFRQLEVSQPRKHLFVWISFYEIYCGQLYDLLNRRKRLFAREDSKHMVQIVGLQELQVDSVELLLEVILKGSKERSTGATGVNADSSRSHAVIQIQIKDSAKRTFGRISFIDLAGSERAADARDSDRQTKMEGAEINQSLLALKECIRALDQEHTHTPFRQSKLTQVLKDSFIGNAKTCMIANISPSHVATEHTLNTLRYAD
B5: KinI-3 construct V195S566 (protein)
chain: MVSGYNYGIPHSCIRQNTSEKQNPWTEMEKIRVCVRKRPLGMREVRRGEINIITVEDKETLLVHEKKEAVDLTQYILQHVFYFDEVFGEACTNQDVYMKTTHPLIQHIFNGGNATCFAYGQTGAGKTYTMIGTHENPGLYALAAKDIFRQLEVSQPRKHLFVWISFYEIYCGQLYDLLNRRKRLFAREDSKHMVQIVGLQELQVDSVELLLEVILKGSKERSTGATGVNADSSRSHAVIQIQIKDSAKRTFGRISFIDLAGSERAADARDSDRQTKMEGAEINQSLLALKECIRALDQEHTHTPFRQSKLTQVLKDSFIGNAKTCMIANISPSHVATEHTLNTLRYADRVKELKKGIKCCTSVTSRNRTSGNSLEHHHHHH
B6: KinI-3 construct E213/L546 (protein)
chain: MEKQNPWTEMEKIRVCVRKRPLGMREVRRGEINIITVEDKETLLVHEKKEAVDLTQYILQHVFYFDEVFGEACTNQDVYMKTTHPLIQHIFNGGNATCFAYGQTGAGKTYTMIGTHENPGLYALAAKDIFRQLEVSQPRKHLFVWISFYEIYCGQLYDLLNRRKRLFAREDSKHMVQIVGLQELQVDSVELLLEVILKGSKERSTGATGVNADSSRSHAVIQIQIKDSAKRTFGRISFIDLAGSERAADARDSDRQTKMEGAEINQSLLALKECIRALDQEHTHTPFRQSKLTQVLKDSFIGNAKTCMIANISPSHVATEHTLNTLRYADRVKELLEHHHHHH
B7: KinI-3 construct E213/S566 (protein)
chain: MEKQNPWTEMEKIRVCVRKRPLGMREVRRGEINIITVEDKETLLVHEKKEAVDLTQYILQHVFYFDEVFGEACTNQDVYMKTTHPLIQHIFNGGNATCFAYGQTGAGKTYTMIGTHENPGLYALAAKDIFRQLEVSQPRKHLFVWISFYEIYCGQLYDLLNRRKRLFAREDSKHMVQIVGLQELQVDSVELLLEVILKGSKERSTGATGVNADSSRSHAVIQIQIKDSAKRTFGRISFIDLAGSERAADARDSDRQTKMEGAEINQSLLALKECIRALDQEHTHTPFRQSKLTQVLKDSFIGNAKTCMIANISPSHVATEHTLNTLRYADRVKELKKGIKCCTSVTSRNRTSGNSLEHHHHHH
B8: KinI-3 construct D143L546 (protein)
chain: DDSQYHTKTGILNATAGDSYVQTEISTSLFSPNYLSAILGDCDIPIIQRISHVSGYNYGIPHSCIRQNTSEKQNPWTEMEKIRVCVRKRPLGMREVRRGEINIITVEDKETLLVHEKKEAVDLTQYILQHVFYFDEVFGEACTNQDVYMKTTHPLIQHIFNGGNATCFAYGQTGAGKTYTMIGTHENPGLYALAAKDIFRQLEVSQPRKHLFVWISFYEIYCGQLYDLLNRRKRLFAREDSKHMVQIVGLQELQVDSVELLLEVILKGSKERSTGATGVNADSSRSHAVIQIQIKDSAKRTFGRISFIDLAGSERAADARDSDRQTKMEGAEINQSLLALKECIRALDQEHTHTPFRQSKLTQVLKDSFIGNAKTCMIANISPSHVATEHTLNTLRYADRVKEL

target: microtubules

Row | Molecule | MT depolymerization
1 | B1 | no
2 | B2 | yes
3 | B3 | no
4 | B4 | no
5 | B5 | yes
6 | B6 | yes
7 | B7 | weak
8 | B8 | no

tested on: microtubules; remark: another data set of the same source

Row | Molecule | microtubule depolymerization (tubulin in supernatant after centrifugation, SDS PAGE), with ATP | microtubule depolymerization (tubulin in supernatant after centrifugation, SDS PAGE), without hydrolysable ATP
9 | KinI-3 protein, bacterially expressed and purified (construct not stated) | Track 3 shows an increase in tubulin in the supernatant that indicates depolymerization in the presence of ATP | No depolymerization was observed in the absence of ATP (track 4), in the presence of AMP-PNP (track 5) or in the presence of ADP (track 6)
